Measured values reported in paper PMC2094074 (Nucleic Acids Research, 2007).

B1: GST-hRad1 (natural protein, human, UniProt O60671 1-282, looked up)
chain: MPLLTQQIQDEDDQYSLVASLDNVRNLSTILKAIHFREHATCFATKNGIKVTVENAKCVQANAFIQAGIFQEFKVQEESVTFRINLTVLLDCLSIFGSSPMPGTLTALRMCYQGYGYPLMLFLEEGGVVTVCKINTQEPEETLDFDFCSTNVINKIILQSEGLREAFSELDMTSEVLQITMSPDKPYFRLSTFGNAGSSHLDYPKDSDLMEAFHCNQTQVNRYKISLLKPSTKALVLSCKVSIRTDNRGFLSLQYMIRNEDGQICFVEYYCCPDEEVPESES
B2: His-tagged hTDG-ΔC1(1-308) (domain or fragment, human, UniProt Q13569 1-308, looked up)
chain: MEAENAGSYSLQQAQAFYTFPFQQLMAEAPNMAVVNEQQMPEEVPAPAPAQEPVQEAPKGRKRKPRTTEPKQPVEPKKPVESKKSGKSAKSKEKQEKITDTFKVKRKVDRFNGVSEAELLTKTLPDILTFNLDIVIIGINPGLMAAYKGHHYPGPGNHFWKCLFMSGLSEVQLNHMDDHTLPGKYGIGFTNMVERTTPGSKDLSSKEFREGGRILVQKLQKYQPRIAVFNGKCIYEIFSKEVFGVKVKNLEFGLQPHKIPDTETLCYVMPSSSARCAQFPRAQDKVHYYIKLKDLRDQLKGIERNMDV
B3: His-tagged hTDG(67-308) (domain or fragment, human, UniProt Q13569 67-308, looked up)
chain: TTEPKQPVEPKKPVESKKSGKSAKSKEKQEKITDTFKVKRKVDRFNGVSEAELLTKTLPDILTFNLDIVIIGINPGLMAAYKGHHYPGPGNHFWKCLFMSGLSEVQLNHMDDHTLPGKYGIGFTNMVERTTPGSKDLSSKEFREGGRILVQKLQKYQPRIAVFNGKCIYEIFSKEVFGVKVKNLEFGLQPHKIPDTETLCYVMPSSSARCAQFPRAQDKVHYYIKLKDLRDQLKGIERNMDV
B4: His-tagged hHus1 expressed in E. coli (natural protein, human, UniProt O60921 1-280, looked up)
chain: MKFRAKIVDGACLNHFTRISNMIAKLAKTCTLRISPDKLNFILCDKLANGGVSMWCELEQENFFNEFQMEGVSAENNEIYLELTSENLSRALKTAQNARALKIKLTNKHFPCLTVSVELLSMSSSSRIVTHDIPIKVIPRKLWKDLQEPVVPDPDVSIYLPVLKTMKSVVEKMKNISNHLVIEANLDGELNLKIETELVCVTTHFKDLGNPPLASESTHEDRNVEHMAEVHIDIRKLLQFLAGQQVNPTKALCNIVNNKMVHFDLLHEDVSLQYFIPALS
B5: GST-hRad9 (natural protein, human, UniProt Q99638 1-391, looked up)
chain: MKCLVTGGNVKVLGKAVHSLSRIGDELYLEPLEDGLSLRTVNSSRSAYACFLFAPLFFQQYQAATPGQDLLRCKILMKSFLSVFRSLAMLEKTVEKCCISLNGRSSRLVVQLHCKFGVRKTHNLSFQDCESLQAVFDPASCPHMLRAPARVLGEAVLPFSPALAEVTLGIGRGRRVILRSYHEEEADSTAKAMVTEMCLGEEDFQQLQAQEGVAITFCLKEFRGLLSFAESANLNLSIHFDAPGRPAIFTIKDSLLDGHFVLATLSDTDSHSQDLGSPERHQPVPQLQAHSTPHPDDFANDDIDSYMIAMETTIGNEGSRVLPSISLSPGPQPPKSPGPHSEEEDEAEPSTVPGTPPPKKFRSLFFGSILAPVRSPQGPSPVLAEDSEGEG
B6: GST-hTDG-N(1-124) (domain or fragment, human, UniProt Q13569 1-124, looked up)
chain: MEAENAGSYSLQQAQAFYTFPFQQLMAEAPNMAVVNEQQMPEEVPAPAPAQEPVQEAPKGRKRKPRTTEPKQPVEPKKPVESKKSGKSAKSKEKQEKITDTFKVKRKVDRFNGVSEAELLTKTL
B7: GST-hHus1 (natural protein, human, UniProt O60921 1-280, looked up)
chain: B4 chain

Experiments:
Assay in all cases: pull-down
[1] = biological target: His-tagged human thymine DNA glycosylase, full length (hTDG-full, residues 1-410) (human, UniProt Q13569 1-410)
[2] = biological target: B2
GST-hRad9 = biological target: B5
GST-hRad1 = biological target: B1
GST-hTDG (full length) = GST-hTDG (full length) (human, UniProt Q13569 1-410)
[3] = biological target: B4

Question: What does the source list for B1?
Answer: binding result [1]: binds; binding result [2]: binds

Question: Does B2 bind (GST-hRad9)?
Answer: Result: binds

Question: Does B3 bind (GST-hRad1)?
Answer: Result: binds

Question: Does B3 bind (GST-hRad9)?
Answer: Result: binds

Question: Does B4 bind (GST-hTDG (full length))?
Answer: Result: binds

Question: Does B5 bind [1]?
Answer: Result: binds

Question: Does B6 bind [3]?
Answer: Result: binds

Question: Does B7 bind [2]?
Answer: Result: binds
